This note sets out measurements from article PMC6231325.

For the test, the target named is GFP_CaV2.2-HA (rabbit) (UniProt Q05152). As to the kind of experiment: co-IP; competition: tsA-201 cells transfected with GFP_CaV2.2-HA, β1b, α2δ-1 and (TASK3, Cachd1 or a 1:1 mix of both) in a ratio of 2:1:2:1; IP with anti-GFP Ab, 300 mM NaCl, digitonin; α2δ-1 in IP/input normalised to no Cachd1.
Sequence of UniProt Q05152 (Q05152 whole entry): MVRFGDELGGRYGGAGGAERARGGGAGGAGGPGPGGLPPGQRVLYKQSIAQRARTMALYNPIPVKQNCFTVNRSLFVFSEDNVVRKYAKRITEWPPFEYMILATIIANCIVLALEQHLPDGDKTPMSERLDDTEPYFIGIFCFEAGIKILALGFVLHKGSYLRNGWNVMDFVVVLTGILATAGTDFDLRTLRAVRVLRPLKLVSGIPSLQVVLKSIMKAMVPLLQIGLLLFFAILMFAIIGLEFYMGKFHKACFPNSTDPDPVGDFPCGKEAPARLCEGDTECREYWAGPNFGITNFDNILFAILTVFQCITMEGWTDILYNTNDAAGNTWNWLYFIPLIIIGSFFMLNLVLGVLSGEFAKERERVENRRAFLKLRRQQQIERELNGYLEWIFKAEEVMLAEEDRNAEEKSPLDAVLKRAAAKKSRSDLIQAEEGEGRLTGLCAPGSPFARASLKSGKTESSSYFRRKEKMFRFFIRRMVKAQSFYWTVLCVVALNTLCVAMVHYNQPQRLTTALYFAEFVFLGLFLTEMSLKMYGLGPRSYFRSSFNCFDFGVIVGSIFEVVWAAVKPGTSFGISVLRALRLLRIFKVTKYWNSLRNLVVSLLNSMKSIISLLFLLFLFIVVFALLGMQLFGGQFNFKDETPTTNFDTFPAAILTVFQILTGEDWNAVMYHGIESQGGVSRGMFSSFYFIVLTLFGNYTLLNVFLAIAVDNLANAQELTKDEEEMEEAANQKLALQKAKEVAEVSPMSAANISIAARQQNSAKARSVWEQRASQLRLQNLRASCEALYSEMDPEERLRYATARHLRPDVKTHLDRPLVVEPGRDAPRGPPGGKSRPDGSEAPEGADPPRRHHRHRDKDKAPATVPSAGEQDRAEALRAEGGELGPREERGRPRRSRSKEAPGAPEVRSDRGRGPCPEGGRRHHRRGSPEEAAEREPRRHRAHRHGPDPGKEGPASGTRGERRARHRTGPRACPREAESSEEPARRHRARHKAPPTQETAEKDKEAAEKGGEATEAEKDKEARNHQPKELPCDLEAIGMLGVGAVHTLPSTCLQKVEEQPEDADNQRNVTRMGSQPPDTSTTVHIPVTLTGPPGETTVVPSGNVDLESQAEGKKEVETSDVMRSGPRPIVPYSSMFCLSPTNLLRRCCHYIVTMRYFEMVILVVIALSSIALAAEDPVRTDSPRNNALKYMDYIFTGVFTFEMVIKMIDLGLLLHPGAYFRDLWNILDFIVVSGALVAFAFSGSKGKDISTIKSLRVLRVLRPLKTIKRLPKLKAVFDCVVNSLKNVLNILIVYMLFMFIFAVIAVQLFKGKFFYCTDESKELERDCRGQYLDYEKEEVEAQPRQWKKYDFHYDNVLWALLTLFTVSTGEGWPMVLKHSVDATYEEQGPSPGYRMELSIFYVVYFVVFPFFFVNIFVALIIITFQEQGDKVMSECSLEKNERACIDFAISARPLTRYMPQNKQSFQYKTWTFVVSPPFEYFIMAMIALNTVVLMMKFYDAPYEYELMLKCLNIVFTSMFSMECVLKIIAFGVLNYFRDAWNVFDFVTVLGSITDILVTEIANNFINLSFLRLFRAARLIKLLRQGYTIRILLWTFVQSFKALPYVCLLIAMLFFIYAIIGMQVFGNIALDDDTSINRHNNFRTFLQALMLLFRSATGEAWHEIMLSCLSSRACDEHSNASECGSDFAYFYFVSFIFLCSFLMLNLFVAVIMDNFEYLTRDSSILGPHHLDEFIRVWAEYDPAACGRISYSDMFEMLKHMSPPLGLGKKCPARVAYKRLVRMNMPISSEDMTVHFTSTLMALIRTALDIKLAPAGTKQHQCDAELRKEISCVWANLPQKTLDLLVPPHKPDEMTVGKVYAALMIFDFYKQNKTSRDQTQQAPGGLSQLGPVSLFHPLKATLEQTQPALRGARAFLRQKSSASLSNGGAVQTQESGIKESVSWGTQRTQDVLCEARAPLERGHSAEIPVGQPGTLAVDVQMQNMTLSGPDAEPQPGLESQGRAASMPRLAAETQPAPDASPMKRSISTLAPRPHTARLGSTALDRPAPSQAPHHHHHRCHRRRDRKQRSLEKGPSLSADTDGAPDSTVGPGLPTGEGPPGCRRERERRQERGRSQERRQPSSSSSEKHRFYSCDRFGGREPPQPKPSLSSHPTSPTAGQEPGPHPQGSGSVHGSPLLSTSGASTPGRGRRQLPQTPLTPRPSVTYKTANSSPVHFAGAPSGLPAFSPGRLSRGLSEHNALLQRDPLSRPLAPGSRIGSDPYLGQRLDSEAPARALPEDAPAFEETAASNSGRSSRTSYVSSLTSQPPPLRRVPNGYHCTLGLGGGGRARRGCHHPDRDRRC

For Cachd1 (natural protein), the percent reduction of the coIP of α2δ-1 with GFP CaV2.2 (1× Cachd1) came to 71%.
